These results are taken from PMC6899042, “Perturbation of the titin/MURF1 signaling complex is associated with hypertrophic cardiomyopathy in a fish model and in human patients” (Disease Models & Mechanisms, 2019).

The test concerns the target T1, myc-tagged MURF1 (muscle-specific ring finger protein 1), full length (human, UniProt Q969Q1-1 1-353).
T1 construct: MURF1 (muscle-specific ring finger protein 1), human, full-length cDNA from bp137 to bp1198 of GenBank NM_032588, printed as aa1-aa354; Cloned into myc-tagged pCMV-Tag3. bp137-bp1198 is 354 codons, which may count the stop codon; source: COS-7 cells, transfected, in lysate (cell line named only for the A168-170 experiment)
As to the kind of experiment: co-IP; GFP-tagged TTN fragment co-transfected with myc-tagged MURF1 (COS-7 cells named for A168-170); IP with anti-myc antibody (Catch and Release v2.0 Reversible Immunoprecipitation System), Western blot with anti-GFP; densitometry normalised to the input amount of GFP-TTN, WT set to 1.00 AU. The following applies: partners not purified. (In general: A western blot detects proteins with antibodies after separation by electrophoresis.)

T1 sequence (Q969Q1 whole entry, the tested form may be a part): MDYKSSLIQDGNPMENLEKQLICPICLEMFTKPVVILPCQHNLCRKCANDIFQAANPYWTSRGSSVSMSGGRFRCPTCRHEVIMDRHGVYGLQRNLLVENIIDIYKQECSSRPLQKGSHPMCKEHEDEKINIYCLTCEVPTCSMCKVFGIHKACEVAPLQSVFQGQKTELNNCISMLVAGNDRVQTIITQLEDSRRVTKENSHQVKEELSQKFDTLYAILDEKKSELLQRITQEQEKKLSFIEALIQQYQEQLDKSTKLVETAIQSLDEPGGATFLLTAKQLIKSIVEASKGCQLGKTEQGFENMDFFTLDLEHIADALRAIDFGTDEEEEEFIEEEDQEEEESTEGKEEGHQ

B1: GFP-tagged D30994N-TTN-A168 (titin Ig domain A168 with the HCM-associated mutation D30994N) (domain or fragment, human, UniProt Q8WZ42-11 30928-31021, looked up)
chain: PHFKEELRNLNVRYQSNATLVCKVTGHPKPIVKWYRQGKEIIADGLKYRIQEFKGGYHQLIIASVTNDDATVYQVRATNQGGSVSGTASLEVEV
notes: numbers count on: the protein encoded by GenBank NM_133378; Cloned into pEGFP-C1; the mutation was found in a family with HCM; also called D30994N mutant TTN-A168
Consider B1, for which the “co-precipitated amount relative to WT TTN-A168 (1.00 AU)” value came to 3.06 AU.

B2: GFP-tagged S30186A-TTN-A160-161 (titin domains A160-161 with the HCM-associated mutation S30186A) (domain or fragment, human, UniProt Q8WZ42-11 30134-30326, looked up)
chain: PDYELDERYQEGIFVRQGGVIRLTIPIKGKPFPICKWTKEGQDISKRAMIATAETHTELVIKEADRGDSGTYDLVLENKCGKKAVYIKVRVIGSPNSPEGPLEYDDIQVRSVRVSWRPPADDGGADILGYILERREVPKAAWYTIDSRVRGTSLVVKGLKENVEYHFRVSAENQFGISKPLKSEEPVTPKTPL
notes: numbers count on: the protein encoded by GenBank NM_133378; Cloned into pEGFP-C1; the mutation was found in a family with HCM
B2: the “co-precipitated amount relative to WT TTN-A160-161 (1.00 AU)” value came to 3.11 AU.

B3: GFP-tagged D30994N-TTN-A168-170 (titin domains A168-A170 with the HCM-associated mutation D30994N) (domain or fragment, human, UniProt Q8WZ42-11 30928-31228, looked up)
chain: PHFKEELRNLNVRYQSNATLVCKVTGHPKPIVKWYRQGKEIIADGLKYRIQEFKGGYHQLIIASVTNDDATVYQVRATNQGGSVSGTASLEVEVPAKIHLPKTLEGMGAVHALRGEVVSIKIPFSGKPDPVITWQKGQDLIDNNGHYQVIVTRSFTSLVFPNGVERKDAGFYVVCAKNRFGIDQKTVELDVADVPDPPRGVKVSDVSRDSVNLTWTEPASDGGSKITNYIVEKCATTAERWLRVGQARETRYTVINLFGKTSYQFRVIAENKFGLSKPSEPSEPTITKEDKTRAMNYDEEV
notes: numbers count on: the protein encoded by GenBank NM_133378; Cloned into pEGFP-C1; the mutation was found in a family with HCM; also called D30994N mutant TTN-A168-170; source: COS-7 cells, transfected, in lysate
Turning to B3, the “co-precipitated amount relative to WT TTN-A168-170 (1.00 AU)” value is 1.58 AU.

B4: GFP-tagged WT-TTN-A169 (titin Ig domain A169) (domain or fragment, human, UniProt Q8WZ42-11 31022-31119, looked up)
chain: PAKIHLPKTLEGMGAVHALRGEVVSIKIPFSGKPDPVITWQKGQDLIDNNGHYQVIVTRSFTSLVFPNGVERKDAGFYVVCAKNRFGIDQKTVELDVA
notes: numbers count on: the protein encoded by GenBank NM_133378; Cloned into pEGFP-C1; also called A169 domain
B4: the “co-precipitated amount relative to WT TTN-A168 (1.00 AU)” value stood at 6.69 AU.

B5: GFP-tagged E29783V-TTN-A156 (titin Ig domain A156 with the equivalent of the medaka nsh mutation D23186V) (domain or fragment, human, UniProt Q8WZ42-11 29735-29829, looked up)
chain: LPTIDLSTMPQKTIHVPAGRPVELVIPIAGRPPPAASWFFAGSKLRESVRVTVETHTKVAKLTIRETTIRDTGEYTLELKNVTGTTSETIKVIIL
notes: numbers count on: the protein encoded by GenBank NM_133378; Cloned into pEGFP-C1; mutation made by primer-mediated mutagenesis; also called mutant-TTN-A156; nsh Ig domain
Regarding B5, the “co-precipitated amount relative to WT TTN-A156 (1.00 AU)” value worked out at 9.23 AU.
